Measurements reported in PMC10031476, “Interaction of the bacterial division regulator MinE with lipid bicelles studied by NMR spectroscopy” (The Journal of Biological Chemistry, 2023).

Biological target: the molecule itself
Test: NMR (3D 15N-separated NOE spectrum, NOE-TROSY); 2H/15N-labeled ngMinE bound to q = 0.5 DMPC:DHPC bicelles; 150 ms mixing time; 35 °C; 25 mM potassium phosphate pH 6.5, 1 mM EDTA, 1 mM benzamidine hydrochloride

B1: Full-length Neisseria gonorrhoeae MinE bearing the double mutation E46A/R10Q (natural protein)
chain: MSLIELLFGQKQKTATVARDRLQIIIAQERAQEGQTPDYLPTLRKALMEVLSKYVNVSLDNIRISQEKQDGMDVLELNITLPEQKKV
modifications: uniform 2H/15N or 2H/15N/13C isotope labeling
notes: Dimer with C2 symmetry (about 19 kDa); also called ngMinE; full-length ngMinE; not shown: His6, C-terminal, kept
binding result: binds
